Measurements taken from patent US20180030149A1.

Biological target: recombinant human ErbB3 monomeric protein (cleaved rhErbB3) (human) (UniProt P21860)
Assay: SPR Biacore 37 C; antibody captured on anti-human Fc, cleaved rhErbB3 (monomer) injected

## U1-59 (antibody)
  Kd: 0.53 nM
